Source: patent US20140206607A1 (INDIANA UNIVERSITY RESEARCH AND TECHNOLOGY, published 2014)
Numbered stars: 1 amine (or outer) side, 2 acyl side, 3 side chain; on linkers, the order of the positions; unused ones are H or OH. Square brackets hold non-standard residues; d marks the D form. Side chains are listed from the residue outwards. Ends that are not written are not given here. * marks the point of attachment. γGlu = O=C(O)[C@H](CCC(=O)[*:2])N[*:1]; Desaminohistidyl = O=C(CCc1c[nH]cn1)*; Palmitoyl = CCCCCCCCCCCCCCCC(=O)*; Aib = CC(C)(N)C(=O)O

T1: GIP receptor (UniProt P48546 22-466)
T1 sequence (looked up): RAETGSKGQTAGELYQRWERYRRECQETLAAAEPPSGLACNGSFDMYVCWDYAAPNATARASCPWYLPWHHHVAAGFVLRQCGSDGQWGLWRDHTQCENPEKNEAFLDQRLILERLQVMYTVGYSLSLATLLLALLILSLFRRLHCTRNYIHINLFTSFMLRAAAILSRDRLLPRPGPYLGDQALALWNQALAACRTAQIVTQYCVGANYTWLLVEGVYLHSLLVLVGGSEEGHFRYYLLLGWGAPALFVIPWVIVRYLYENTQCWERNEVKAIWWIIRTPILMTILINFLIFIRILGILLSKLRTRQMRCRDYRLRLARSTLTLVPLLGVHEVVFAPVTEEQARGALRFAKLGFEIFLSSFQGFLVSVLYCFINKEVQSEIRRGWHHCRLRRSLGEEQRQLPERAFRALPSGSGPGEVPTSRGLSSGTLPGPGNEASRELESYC


Columns and labels:
Experiment in all cases: cell-based or functional assay
GIP receptor = target: T1, GIP receptor
GLP-1 receptor = GLP-1 receptor (UniProt P43220 24-463, limits assumed)
glucagon receptor = glucagon receptor (UniProt P47871 26-477, limits assumed)
Sequence of glucagon receptor (P47871 26-477 limits assumed): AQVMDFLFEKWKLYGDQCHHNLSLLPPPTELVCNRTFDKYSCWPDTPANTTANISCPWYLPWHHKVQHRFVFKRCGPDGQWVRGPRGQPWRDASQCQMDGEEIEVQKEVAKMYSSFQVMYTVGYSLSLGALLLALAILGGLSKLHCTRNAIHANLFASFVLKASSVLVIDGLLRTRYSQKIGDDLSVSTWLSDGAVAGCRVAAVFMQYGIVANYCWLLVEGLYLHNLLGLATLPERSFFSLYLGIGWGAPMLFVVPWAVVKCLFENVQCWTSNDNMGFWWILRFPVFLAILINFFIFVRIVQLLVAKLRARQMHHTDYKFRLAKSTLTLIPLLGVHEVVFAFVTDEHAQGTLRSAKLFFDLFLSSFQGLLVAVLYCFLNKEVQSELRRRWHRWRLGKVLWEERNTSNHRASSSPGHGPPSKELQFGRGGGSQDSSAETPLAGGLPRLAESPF

Binder | EC50 (nM) at GIP receptor (GIP receptor) | EC50 (nM) at GLP-1 receptor (GLP-1 receptor) | EC50 (nM) at glucagon receptor (glucagon receptor)
[Desaminohistidyl][dS]QGTFTSDK([γGlu-Palmitoyl])SKYLDERAAQDFVQWLLDT-NH2 (SMILES CCCCCCCCCCCCCCCC(=O)N[C@@H](CCC(=O)NCCCC[C@H](NC(=O)[C@H](CC(=O)O)NC(=O)[C@H](CO)NC(=O)[C@@H](NC(=O)[C@H](Cc1ccccc1)NC(=O)[C@@H](NC(=O)CNC(=O)[C@H](CCC(N)=O)NC(=O)[C@@H](CO)NC(=O)CCc1c[nH]cn1)[C@@H](C)O)[C@@H](C)O)C(=O)N[C@@H](CO)C(=O)N[C@@H](CCCCN)C(=O)N[C@@H](Cc1ccc(O)cc1)C(=O)N[C@@H](CC(C)C)C(=O)N[C@@H](CC(=O)O)C(=O)N[C@@H](CCC(=O)O)C(=O)N[C@@H](CCCNC(=N)N)C(=O)N[C@@H](C)C(=O)N[C@@H](C)C(=O)N[C@@H](CCC(N)=O)C(=O)N[C@@H](CC(=O)O)C(=O)N[C@@H](Cc1ccccc1)C(=O)N[C@H](C(=O)N[C@@H](CCC(N)=O)C(=O)N[C@@H](Cc1c[nH]c2ccccc12)C(=O)N[C@@H](CC(C)C)C(=O)N[C@@H](CC(C)C)C(=O)N[C@@H](CC(=O)O)C(=O)N[C@H](C(N)=O)[C@@H](C)O)C(C)C)C(=O)O) [peptide of SEQ ID NO: 20] | 1.38 nM | 0.004 nM | 0.006 nM
Ac-H[dS]QGTFTSDK([γGlu-Palmitoyl])SKYLDERAAQDFVQWLLDT-NH2 (SMILES CCCCCCCCCCCCCCCC(=O)N[C@@H](CCC(=O)NCCCC[C@H](NC(=O)[C@H](CC(=O)O)NC(=O)[C@H](CO)NC(=O)[C@@H](NC(=O)[C@H](Cc1ccccc1)NC(=O)[C@@H](NC(=O)CNC(=O)[C@H](CCC(N)=O)NC(=O)[C@@H](CO)NC(=O)[C@H](Cc1c[nH]cn1)NC(C)=O)[C@@H](C)O)[C@@H](C)O)C(=O)N[C@@H](CO)C(=O)N[C@@H](CCCCN)C(=O)N[C@@H](Cc1ccc(O)cc1)C(=O)N[C@@H](CC(C)C)C(=O)N[C@@H](CC(=O)O)C(=O)N[C@@H](CCC(=O)O)C(=O)N[C@@H](CCCNC(=N)N)C(=O)N[C@@H](C)C(=O)N[C@@H](C)C(=O)N[C@@H](CCC(N)=O)C(=O)N[C@@H](CC(=O)O)C(=O)N[C@@H](Cc1ccccc1)C(=O)N[C@H](C(=O)N[C@@H](CCC(N)=O)C(=O)N[C@@H](Cc1c[nH]c2ccccc12)C(=O)N[C@@H](CC(C)C)C(=O)N[C@@H](CC(C)C)C(=O)N[C@@H](CC(=O)O)C(=O)N[C@H](C(N)=O)[C@@H](C)O)C(C)C)C(=O)O) [peptide of SEQ ID NO: 21] | 4.5 nM | 0.009 nM | 0.005 nM
H[Aib]QGTFTSDK([γGlu-γGlu-Palmitoyl])SKYLD[Aib]RAAQDFVQWLMDGRG-NH2 (N-terminus assumed; SMILES CCCCCCCCCCCCCCCC(=O)N[C@@H](CCC(=O)N[C@@H](CCC(=O)NCCCC[C@H](NC(=O)[C@H](CC(=O)O)NC(=O)[C@H](CO)NC(=O)[C@@H](NC(=O)[C@H](Cc1ccccc1)NC(=O)[C@@H](NC(=O)CNC(=O)[C@H](CCC(N)=O)NC(=O)C(C)(C)NC(=O)[C@@H](N)Cc1c[nH]cn1)[C@@H](C)O)[C@@H](C)O)C(=O)N[C@@H](CO)C(=O)N[C@@H](CCCCN)C(=O)N[C@@H](Cc1ccc(O)cc1)C(=O)N[C@@H](CC(C)C)C(=O)N[C@@H](CC(=O)O)C(=O)NC(C)(C)C(=O)N[C@@H](CCCNC(=N)N)C(=O)N[C@@H](C)C(=O)N[C@@H](C)C(=O)N[C@@H](CCC(N)=O)C(=O)N[C@@H](CC(=O)O)C(=O)N[C@@H](Cc1ccccc1)C(=O)N[C@H](C(=O)N[C@@H](CCC(N)=O)C(=O)N[C@@H](Cc1c[nH]c2ccccc12)C(=O)N[C@@H](CC(C)C)C(=O)N[C@@H](CCSC)C(=O)N[C@@H](CC(=O)O)C(=O)NCC(=O)N[C@@H](CCCNC(=N)N)C(=O)NCC(N)=O)C(C)C)C(=O)O)C(=O)O) [peptide of SEQ ID NO: 22] | 2.37 nM | 0.002 nM | 0.005 nM
H[Aib]QGTFTSDK([γGlu-γGlu-Palmitoyl])SKYLD[Aib]RAAQDFVQWLMKGRG-NH2 (N-terminus assumed; SMILES CCCCCCCCCCCCCCCC(=O)N[C@@H](CCC(=O)N[C@@H](CCC(=O)NCCCC[C@H](NC(=O)[C@H](CC(=O)O)NC(=O)[C@H](CO)NC(=O)[C@@H](NC(=O)[C@H](Cc1ccccc1)NC(=O)[C@@H](NC(=O)CNC(=O)[C@H](CCC(N)=O)NC(=O)C(C)(C)NC(=O)[C@@H](N)Cc1c[nH]cn1)[C@@H](C)O)[C@@H](C)O)C(=O)N[C@@H](CO)C(=O)N[C@@H](CCCCN)C(=O)N[C@@H](Cc1ccc(O)cc1)C(=O)N[C@@H](CC(C)C)C(=O)N[C@@H](CC(=O)O)C(=O)NC(C)(C)C(=O)N[C@@H](CCCNC(=N)N)C(=O)N[C@@H](C)C(=O)N[C@@H](C)C(=O)N[C@@H](CCC(N)=O)C(=O)N[C@@H](CC(=O)O)C(=O)N[C@@H](Cc1ccccc1)C(=O)N[C@H](C(=O)N[C@@H](CCC(N)=O)C(=O)N[C@@H](Cc1c[nH]c2ccccc12)C(=O)N[C@@H](CC(C)C)C(=O)N[C@@H](CCSC)C(=O)N[C@@H](CCCCN)C(=O)NCC(=O)N[C@@H](CCCNC(=N)N)C(=O)NCC(N)=O)C(C)C)C(=O)O)C(=O)O) [peptide of SEQ ID NO: 23] | 1.58 nM | 0.004 nM | 0.023 nM
H[Aib]QGTFTSDK([γGlu-γGlu-Palmitoyl])SKYLD[Aib]RAAQDFVQWLKDGRG-NH2 (N-terminus assumed; SMILES CCCCCCCCCCCCCCCC(=O)N[C@@H](CCC(=O)N[C@@H](CCC(=O)NCCCC[C@H](NC(=O)[C@H](CC(=O)O)NC(=O)[C@H](CO)NC(=O)[C@@H](NC(=O)[C@H](Cc1ccccc1)NC(=O)[C@@H](NC(=O)CNC(=O)[C@H](CCC(N)=O)NC(=O)C(C)(C)NC(=O)[C@@H](N)Cc1c[nH]cn1)[C@@H](C)O)[C@@H](C)O)C(=O)N[C@@H](CO)C(=O)N[C@@H](CCCCN)C(=O)N[C@@H](Cc1ccc(O)cc1)C(=O)N[C@@H](CC(C)C)C(=O)N[C@@H](CC(=O)O)C(=O)NC(C)(C)C(=O)N[C@@H](CCCNC(=N)N)C(=O)N[C@@H](C)C(=O)N[C@@H](C)C(=O)N[C@@H](CCC(N)=O)C(=O)N[C@@H](CC(=O)O)C(=O)N[C@@H](Cc1ccccc1)C(=O)N[C@H](C(=O)N[C@@H](CCC(N)=O)C(=O)N[C@@H](Cc1c[nH]c2ccccc12)C(=O)N[C@@H](CC(C)C)C(=O)N[C@@H](CCCCN)C(=O)N[C@@H](CC(=O)O)C(=O)NCC(=O)N[C@@H](CCCNC(=N)N)C(=O)NCC(N)=O)C(C)C)C(=O)O)C(=O)O) [peptide of SEQ ID NO: 24] | 1.46 nM | 0.004 nM | 0.021 nM
H[Aib]QGTFTSDK([γGlu-γGlu-Palmitoyl])SKYLD[Aib]RAAQDFVQWLKDGRP-NH2 (N-terminus assumed; SMILES CCCCCCCCCCCCCCCC(=O)N[C@@H](CCC(=O)N[C@@H](CCC(=O)NCCCC[C@H](NC(=O)[C@H](CC(=O)O)NC(=O)[C@H](CO)NC(=O)[C@@H](NC(=O)[C@H](Cc1ccccc1)NC(=O)[C@@H](NC(=O)CNC(=O)[C@H](CCC(N)=O)NC(=O)C(C)(C)NC(=O)[C@@H](N)Cc1c[nH]cn1)[C@@H](C)O)[C@@H](C)O)C(=O)N[C@@H](CO)C(=O)N[C@@H](CCCCN)C(=O)N[C@@H](Cc1ccc(O)cc1)C(=O)N[C@@H](CC(C)C)C(=O)N[C@@H](CC(=O)O)C(=O)NC(C)(C)C(=O)N[C@@H](CCCNC(=N)N)C(=O)N[C@@H](C)C(=O)N[C@@H](C)C(=O)N[C@@H](CCC(N)=O)C(=O)N[C@@H](CC(=O)O)C(=O)N[C@@H](Cc1ccccc1)C(=O)N[C@H](C(=O)N[C@@H](CCC(N)=O)C(=O)N[C@@H](Cc1c[nH]c2ccccc12)C(=O)N[C@@H](CC(C)C)C(=O)N[C@@H](CCCCN)C(=O)N[C@@H](CC(=O)O)C(=O)NCC(=O)N[C@@H](CCCNC(=N)N)C(=O)N1CCC[C@H]1C(N)=O)C(C)C)C(=O)O)C(=O)O) [peptide of SEQ ID NO: 25] | 2.36 nM | 0.003 nM | 0.035 nM
H[Aib]QGTFTSDK([γGlu-γGlu-Palmitoyl])SKYLD[Aib]RAAQDFVQWLK[Aib]GRG-NH2 (N-terminus assumed; SMILES CCCCCCCCCCCCCCCC(=O)N[C@@H](CCC(=O)N[C@@H](CCC(=O)NCCCC[C@H](NC(=O)[C@H](CC(=O)O)NC(=O)[C@H](CO)NC(=O)[C@@H](NC(=O)[C@H](Cc1ccccc1)NC(=O)[C@@H](NC(=O)CNC(=O)[C@H](CCC(N)=O)NC(=O)C(C)(C)NC(=O)[C@@H](N)Cc1c[nH]cn1)[C@@H](C)O)[C@@H](C)O)C(=O)N[C@@H](CO)C(=O)N[C@@H](CCCCN)C(=O)N[C@@H](Cc1ccc(O)cc1)C(=O)N[C@@H](CC(C)C)C(=O)N[C@@H](CC(=O)O)C(=O)NC(C)(C)C(=O)N[C@@H](CCCNC(=N)N)C(=O)N[C@@H](C)C(=O)N[C@@H](C)C(=O)N[C@@H](CCC(N)=O)C(=O)N[C@@H](CC(=O)O)C(=O)N[C@@H](Cc1ccccc1)C(=O)N[C@H](C(=O)N[C@@H](CCC(N)=O)C(=O)N[C@@H](Cc1c[nH]c2ccccc12)C(=O)N[C@@H](CC(C)C)C(=O)N[C@@H](CCCCN)C(=O)NC(C)(C)C(=O)NCC(=O)N[C@@H](CCCNC(=N)N)C(=O)NCC(N)=O)C(C)C)C(=O)O)C(=O)O) [peptide of SEQ ID NO: 26] | 3.29 nM | 0.004 nM | 0.106 nM
